Test results: US7601803 (SCIL PROTEINS, dated 2009)

Target: T1, BSA (UniProt P02769 25-607)
T1 construct: Unconjugated carrier protein used as the control antigen
Test: concentration-dependent ELISA, BSA coated at 20 µg/ml, detected with tetra-His antibody
Method: Specific binding of mutant 12A to the BSA-estradiol-17-hemisuccinate conjugate was assayed by carrying out an ELISA, with increasing concentrations of purified mutant 12A-His-Tag protein being used. Increasing amounts of gamma-II-crystalline wild-type (likewise with His-Tag) were used as control, and binding of both purified proteins to BSA was assayed. The concentration-dependant ELISA was carried out using NUNC-Tm plates. Antigen coating with the BSA-estradiol-17-hemisuccinate conjugate or with BSA was carried out at room temperature overnight. Coating was carried out with in each case 100 µl of antigen at a concentration of 20 µg/ml of PBS pH 7.6. After washing (2×PBS pH 7.6) and blocking the plates (3% Marvel/PBS at 37° C. for 2 h), in each case 1-13 µl of the protein stock solution (concentration 0.63 mg/ml) of purified Mu 12A or gamma-II-crystalline were introduced into a total 100 µl of reaction solution (PBS, 3% Marvel, x µl of protein) and incubated in the wells at 37° C. for 2 h. The secondary antibodies used were the tetra-His antibody from Qiagen in a dilution of 1:3000 and the anti-mouse POD antibody (Sigma) in a dilution of 1:2000. The antibodies were diluted with a 3% strength Marvel/PBS solution and 100 µl were added to the wells and incubated at 37° C. for in each case 1 h. […] No increase was detected using gamma-II-crystalline. […]

T1 sequence (P02769 25-607 limits assumed): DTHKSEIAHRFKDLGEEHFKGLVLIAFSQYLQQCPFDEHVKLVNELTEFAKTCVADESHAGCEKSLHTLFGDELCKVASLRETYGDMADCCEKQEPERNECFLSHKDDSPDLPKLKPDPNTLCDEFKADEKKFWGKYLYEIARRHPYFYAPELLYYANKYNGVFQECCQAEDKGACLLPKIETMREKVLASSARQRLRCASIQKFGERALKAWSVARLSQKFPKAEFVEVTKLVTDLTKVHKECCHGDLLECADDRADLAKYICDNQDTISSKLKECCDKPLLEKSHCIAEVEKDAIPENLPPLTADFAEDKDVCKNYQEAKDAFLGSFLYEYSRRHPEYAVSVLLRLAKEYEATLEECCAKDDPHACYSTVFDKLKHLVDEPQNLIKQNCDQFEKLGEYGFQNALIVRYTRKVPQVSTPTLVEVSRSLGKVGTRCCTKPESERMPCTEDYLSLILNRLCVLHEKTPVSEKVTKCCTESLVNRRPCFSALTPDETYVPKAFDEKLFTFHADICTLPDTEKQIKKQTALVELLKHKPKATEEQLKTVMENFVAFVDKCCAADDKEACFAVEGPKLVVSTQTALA

- binding result: no binding
B1: bovine gamma-II-crystalline wild-type, purified His-Tag protein after expression in pET-20b (other)
chain: MGKITFYEDRGFQGHCYECSSDCPNLQPYFSRCNSIRVDSGCWMLYERPNYQGHQYFLRRGDYPDYQQWMGFNDSIRSCRLIPQHTGTFRMRIYERDDFRGQMSEITDDCPSLQDRFHLTEVHSLNVLEGSWVLYEMPSYRGRQYLLRPGEYRRYLDWGAMNAKVGSLRRVMDFYSDPNSSSVDKLAAALEHHHHHH
notes: Starting protein used as the control, likewise with His-Tag; also called WT; gamma-B-crystalline
